Experimental data published in patent publication US20260209316A1 (US Dept. of Health and Human Services, published 2026).

T1: SUDV GP on pseudotyped lentiviral vector (Sudan virus (SUDV), UniProt Q7T9D9 33-676)
T1 sequence: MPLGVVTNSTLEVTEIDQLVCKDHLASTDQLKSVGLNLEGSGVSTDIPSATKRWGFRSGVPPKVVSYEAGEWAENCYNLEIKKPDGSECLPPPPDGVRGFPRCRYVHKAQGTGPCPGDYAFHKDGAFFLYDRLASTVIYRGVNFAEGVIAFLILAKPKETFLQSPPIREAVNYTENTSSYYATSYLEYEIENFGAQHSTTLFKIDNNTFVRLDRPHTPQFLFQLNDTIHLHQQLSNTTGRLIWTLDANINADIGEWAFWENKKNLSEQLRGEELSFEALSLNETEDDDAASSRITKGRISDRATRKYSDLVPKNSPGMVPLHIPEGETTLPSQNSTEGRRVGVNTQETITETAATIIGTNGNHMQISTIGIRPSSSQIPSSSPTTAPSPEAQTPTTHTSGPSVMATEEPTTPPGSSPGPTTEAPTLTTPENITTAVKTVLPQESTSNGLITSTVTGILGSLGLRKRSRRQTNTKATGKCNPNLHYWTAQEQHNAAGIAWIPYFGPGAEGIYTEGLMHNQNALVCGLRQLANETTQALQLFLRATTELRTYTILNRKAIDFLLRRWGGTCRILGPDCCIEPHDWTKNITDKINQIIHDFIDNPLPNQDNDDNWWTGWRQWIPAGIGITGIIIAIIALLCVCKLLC

T2: full-length Zaire GP (GPFL) (Ebola (Zaire) virus (EBOV), UniProt Q05320 33-632)
T2 construct: also called Zaire GPFL; GP(Z)FL
T2 sequence: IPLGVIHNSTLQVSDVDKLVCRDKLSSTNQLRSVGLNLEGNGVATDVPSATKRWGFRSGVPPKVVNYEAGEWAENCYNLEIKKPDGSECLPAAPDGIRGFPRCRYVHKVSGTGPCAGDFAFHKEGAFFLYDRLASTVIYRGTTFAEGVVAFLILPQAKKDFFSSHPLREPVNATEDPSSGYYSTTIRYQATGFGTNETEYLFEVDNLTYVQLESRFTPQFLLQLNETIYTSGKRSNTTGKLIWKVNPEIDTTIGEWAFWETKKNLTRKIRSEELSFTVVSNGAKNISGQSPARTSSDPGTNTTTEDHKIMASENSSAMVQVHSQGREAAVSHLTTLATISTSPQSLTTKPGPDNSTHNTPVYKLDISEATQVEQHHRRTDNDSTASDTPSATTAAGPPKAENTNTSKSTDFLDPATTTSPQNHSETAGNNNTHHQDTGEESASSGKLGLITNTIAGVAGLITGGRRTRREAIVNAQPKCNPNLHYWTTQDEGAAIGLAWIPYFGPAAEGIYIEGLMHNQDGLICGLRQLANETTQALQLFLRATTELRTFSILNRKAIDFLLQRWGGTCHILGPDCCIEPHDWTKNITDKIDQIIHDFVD

T3: full-length Sudan GP (GPFL) (Sudan virus (SUDV), UniProt Q7T9D9 33-650)
T3 construct: also called Sudan GPFL; GP(S)FL
T3 sequence: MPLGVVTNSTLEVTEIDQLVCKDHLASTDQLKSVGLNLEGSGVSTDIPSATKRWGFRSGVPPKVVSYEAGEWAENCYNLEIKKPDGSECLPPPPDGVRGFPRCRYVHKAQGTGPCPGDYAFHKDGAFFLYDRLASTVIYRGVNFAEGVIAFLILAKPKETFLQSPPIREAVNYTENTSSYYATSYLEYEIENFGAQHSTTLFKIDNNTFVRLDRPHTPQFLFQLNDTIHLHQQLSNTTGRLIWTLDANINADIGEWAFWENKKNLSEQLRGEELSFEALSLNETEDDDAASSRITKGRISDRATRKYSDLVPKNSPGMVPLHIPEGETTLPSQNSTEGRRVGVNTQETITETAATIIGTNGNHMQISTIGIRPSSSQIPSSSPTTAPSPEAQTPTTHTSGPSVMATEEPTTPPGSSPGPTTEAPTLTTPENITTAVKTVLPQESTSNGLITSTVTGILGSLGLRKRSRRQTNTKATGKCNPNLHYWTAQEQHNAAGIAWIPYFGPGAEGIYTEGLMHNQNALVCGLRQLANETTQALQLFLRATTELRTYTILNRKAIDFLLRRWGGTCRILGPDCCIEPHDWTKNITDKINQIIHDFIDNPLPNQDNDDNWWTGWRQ

B1: antibody 233S (antibody, V domains shown)
VH: EVQLVESGGGLGQPGGSLRLSCAASGFKFKIFGMNWVRQAPGKGLEWVSYISSRSSIIYYADSVKGRFTISRDDATNSLFLQMNSLRDEDTAMYYCVRDYNLIDFVWGSLFDYWGQGILVTVSS
VL: AIRMTQSPSSLSASTGDSVTITCRASQNIASYLAWYQQIPGKAPKLLIYVASTLQSGVPSRFSGSGSGTDFTLTISSLQSEDFATYYCQQYYRYPPTFGQGTKVEIK
B2: antibody 573S (antibody, V domains shown)
VH: EVQLVESGGGLVKPGGSLRLSCAASGFTFSSYTMNWVRQAPGKGLEWVSCIRSSSSDKYYADSVKGRFTISRDNTKNSLYLQMNSLRADDTAVYYCARDLGGANNRYYFDYGMDVWGQGTTVTVSS
VL: EIVMTQSPATLSVSPGGRATLSCRASQSVYTNLAWYQQKPGQAPRLLIYDASTRATGIPARFSGSGSGTEFTLTISSLQCEDFAVYYCQHYNNWPLYTFGQGTKLEIK
B3: antibody 294S (antibody, V domains shown)
VH: QVQLQESGPGLVKPSQTLSLTCTVSGGSISSGGYHWSWIRQHPGKGLEWIGNIYYNGRTYYNPSLKSRVTISVDTSENEFSLKLSSVTAADTAVYYCARDRRRPRIGHDYGMDVWGQGTKVIVSS
VL: DIQMTQSPSSLSASVGDRVTISCRASQSISNFLNWYQQKPGQAPKLLIYTASNLQSGVPSRFSGSGSGTDFTLTISSLQPEDFATYYCQQIYNTGMYSFGQGTKLEIKR
B4: antibody 541S (antibody, V domains shown)
VH: QVQLVQSGAEVKKPGASVKVSCKASGYTFTNYAITWVRQAPGQGLEWMGWISAFNGQINYAQKFQGRVAMTTDTSTSTAYMELRSLRSDDTAVYYCARAPPMWFSGAKFDYWGQGTLVTVSS
VL: QSVLTQPPSVSGTPGQRVTISCSGSSSNIGSNTVNWYQQLPGTAPKLLIYSNDQRPSGVPDRFSGSKSGTSASLAISGLRSEDEADYYCAAWDETLRRVFGGGTRLTVL
B5: antibody 241S (antibody, V domains shown)
VH: QVQLVQSGSELKKPGASVKVSCKASGYTFTSYTVNWVRQAPGQGLEWMGWINTNTGNPTYAQGFTGRFVFSSDTSVSTAYLQISDLKAEDTAMYYCARHVAYDLWSGHTVTFDHWGQGTLVTVSS
VL: QSALTQPPSASGSPGQSVTISCTGTSSDVGAYNYVSWYQQHPGKAPKLIIYEVTKRPSGVPDRFSGSKSGNTASLTVSGLQAEDEADYYCSSKAGGKTYVFGTGTKVTVL
B6: antibody 523S (antibody, V domains shown)
VH: QVQLVQSGAELKKPGASVKVSCKASGYTFSDHYVHWVRQAPGQGLEWMGRINPNSGGTNYAQRFLGRVTMTRDASISTAYLDLSSLRSDDTAVYYCARSSSSWSGHYYYYMDVWGKGTTVTVSS
VL: QSVLTQPPSVSAAPGQRVTISCSGSTSNIASNFVSWYQQLPGTAPKLLIYDNHKRPSGIPDRFSGSKSGTSATLGITGLQTGDEADYYCGTWDSSLSAGVFGGGTKVTVLG
B7: antibody 354S (antibody, V domains shown)
VH: QVQLVQSGAEVKKPGASVKVSCKASGYSFASYYIHWVRQAPGQGLEWMGIINPSGGTTSYAQKFQGRVTMTRDTSTSTVYMELSSLGSEDTAVYYCARIVDRVTIYLNGVDNYWGQGTLVTVSS
VL: EIVMTQSPATLSVSPGERVTLSCRASQSVSSNLAWFQQTPGQAPRLLIYGASTRASGVPARFSGSGSGTEFTLTISSLQSEDFAVYYCLQYNNWPPGWKYGFGQGTKLEIK
B8: antibody 503S (antibody, V domains shown)
VH: QVQLVQSGAEVKKPGASVRVSCKASGYTFTSYYMHWVRQAPGQGLEWMGQINPSGGTTRYERKFQGRITVTRDTSTSTVYLELSSLRSEDTASYFCACLRDKVTYYDLWSGVDSVWGQGTLVTVSS
VL: DIQMTQSPSSLSASVGDRVTITCRASQDISTWLAWYQQKPEKAPKSLIYAASTLETGVPSRFSGSGSGTDFTLTISSLQPEDFATYYCEQYNGFPRTFGQGTKLDIK
B9: antibody 314L (antibody, V domains shown)
VH: EERLVESGGGLVQPGGSLRLSCAASGFTFGDYAMHWVRQVPGKSLEWLSGISWSGYTTYSADSVKGRFTISRDNAKNSLYLQMNRLRPEDTGLYYCVTLIGAIGIKDSLDVWGRGVLVTVSS
VL: EVVFTQPHSVSGSPGQMVTISCTRSSGTIDNSYVYWHQQRPGSAPTTVIYNDDQRPSGVPDRFSGSIDSSSNSASLTISGLKSEDEADYYCQSYDSSGWVFGGGTRLTVL
B10: antibody 315L (antibody, V domains shown)
VH: QVQLQESGPGLVKPSETLSLTCTVSGGSITGNYWTWVRQPPGKGLQYIGRFDAGGKTYYNPPLKSRVSILGDKSKNQVSLNLTSVTVADTGVYYCAREQWGQLLSGSFDVWGRGVLVTVSS
VL: SYELTQPPSVSVSPGQTARITCSGDALPDYYAHWYQQKSGQAPMLVIYKDTERPSGIPERFSGSSSGTTVSLTISGVQAEDEADYYCQSGDSSGNHWVFGGGTRLTVL
B11: antibody 102S (antibody, V domains shown)
VH: EVQLVESGGGLVQPGGSLRLSCSASGFTFHSYDMNWARQAPGKGLEWVSEISSSGQSKNYADSVRGRFTISRDNAKNSLYLQINSLRSEDTAVYYCARVGFVAKFGSDFSITHGTYYLDYWGQGTLVTVSS
VL: QLVLTQSPATLSLSPGERATLSCRASQSVSNYLAWYQQKPGQAPRLLIYDASNRAPGVPARFSGSGSGTDFSLTISSLEPEDFAVYYCLQRSNWPPWTFGQGTKVEIK
B12: antibody 578S (antibody, V domains shown)
VH: EVQLVESGGGVVQPGRSLRLSCAASGFTFSSYELHWVRQAPGKGLEWVAVISYDGSSKYYADSLKGRFTISRDNSKNTLSLQMNSLRAEDTAMYYCVRQSEAYCSDGRCDWRRALDIWGQGTMVTVSP
VL: DIQMTQSPSSLSASVGDRVTITCQASQDIKNYLNWYQQKPGKAPKLLIYDVSKLETGVPSRFSGSGSGTDFSFTISSLQPEDIATYYCQQYDNLPSYTFGQGTKLEIK

target: T1, SUDV GP on pseudotyped lentiviral vector; assay: cell-based or functional assay

Binder	IC50, microneutralization of GP-pseudotyped lentiviral vector on HEK293 cells [µg/mL]
B1	0.167
B2	0.188
B3	0.0192
B4	0.478
B5	0.0275
B6	0.108
B7	0.03
B8	0.102

target: T2, full-length Zaire GP (GPFL); assay: ELISA on coated GP

Binder	EC50 [µg/mL]
B9	1.73
B10	1.8

target: T3, full-length Sudan GP (GPFL); assay: ELISA on coated GP

Binder	EC50 [µg/mL]
B9	1.05
B10	0.01

target: T1, SUDV GP on pseudotyped lentiviral vector; assay: cell-based or functional assay; remark: another data set of the same source

Binder	IC50, microneutralization of GP-pseudotyped lentiviral vector on HEK293 cells [µg/mL]
B11	0.88
B12	1.09

target: T1, SUDV GP on pseudotyped lentiviral vector; assay: cell-based or functional assay; remark: another data set of the same source

Binder	IC50, microneutralization of GP-pseudotyped lentiviral vector on HEK293 cells [µg/mL]
B10	> 10

target: T3, full-length Sudan GP (GPFL); assay: ELISA on coated GP; remark: another data set of the same source

Binder	EC50 [µg/mL]
B1	0.133
B2	0.221
B3	0.0258
B4	0.368
B5	0.232
B6	0.371
B7	0.0613
B8	0.64

target: T3, full-length Sudan GP (GPFL); assay: ELISA on coated GP; remark: another data set of the same source

Binder	EC50 [µg/mL]
B11	0.09
B12	0.18
